The substances below were run against human α-thrombin (human) (UniProt P00734) (assay: enzyme inhibition assay (chromogenic thrombin amidolytic activity); 0.14 nM human α-thrombin, 100 μM N-(p-Tosyl)-GPR-pNA, varying concentrations of inhibitor; 50 mM Tris-HCl, 50 mM NaCl, pH 8; absorption at 405 nm; Ki from a Morrison equation).

“chimadanin sulfated at both Tyr28 and Tyr31 (natural protein)” was tested. Which Ki did it give?
Its Ki is 0.1 nM.

“chimadanin with sTyr at Tyr28 (natural protein)” was tested. Which Ki did it give?
The Ki was 0.6 nM.

With “chimadanin with sTyr at Tyr31 (natural protein)” as the substance, how does the Ki read?
The Ki was 1.5 nM.

Which Ki does the source give for “madanin-1 sulfated at both Tyr32 and Tyr35 (natural protein)” here?
The Ki was 0.5 nM.

For “madanin-1 with sTyr at Tyr32 (natural protein)”, which Ki is on record?
Its Ki is 1.3 nM.

With “madanin-1 with sTyr at Tyr35 (natural protein)” as the substance, how does the Ki read?
The Ki was 6.1 nM.

Which Ki does the source give for wildtype chimadanin (natural protein) here?
Its Ki is 12.9 nM.

With wildtype madanin-1 (natural protein) as the substance, how does the Ki read?
Its Ki is 16 nM.
